Test results from PMC10397247.
Blank lines part the entries; values can stand above or below the binder they belong to.

Columns and labels:
[1] = target: T1, 4H591-bN; assay: two-hybrid library CCNG1;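 also: natural log of median RNA to DNA barcode read ratio; higher means stronger binding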
T1 chain: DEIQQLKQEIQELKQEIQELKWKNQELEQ

[2] = target: T2, 4H3414-bN; assay: two-hybrid library CCNG1;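 also: natural log of median RNA to DNA barcode read ratio; higher means stronger binding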
T2 chain: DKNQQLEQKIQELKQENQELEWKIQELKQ

[3] = target: T3, 4H906-bN; assay: two-hybrid library CCNG1;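 also: natural log of median RNA to DNA barcode read ratio; higher means stronger binding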
T3 chain: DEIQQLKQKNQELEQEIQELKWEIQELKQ

[4] = target: T4, 4H3926-bN; assay: two-hybrid library CCNG1;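 also: natural log of median RNA to DNA barcode read ratio; higher means stronger binding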
T4 chain: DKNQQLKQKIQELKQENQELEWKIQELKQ

[5] = target: T5, 4H3277-bN; assay: two-hybrid library CCNG1;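 also: natural log of median RNA to DNA barcode read ratio; higher means stronger binding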
T5 chain: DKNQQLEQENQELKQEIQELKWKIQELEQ

[6] = target: T6, 4H3628-bN; assay: two-hybrid library CCNG1;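 also: natural log of median RNA to DNA barcode read ratio; higher means stronger binding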
T6 chain: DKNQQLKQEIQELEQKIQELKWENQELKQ

[7] = target: T7, 4H3497-bN; assay: two-hybrid library CCNG1
T7 chain: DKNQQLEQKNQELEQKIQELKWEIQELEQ

[8] = target: T8, 4H626-bN; assay: two-hybrid library CCNG1
T8 chain: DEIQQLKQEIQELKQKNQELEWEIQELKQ

[9] = target: T9, 4H3175-bN; assay: two-hybrid library CCNG1
T9 chain: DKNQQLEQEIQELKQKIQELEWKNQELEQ

[10] = target: T10, 4H3462-bN; assay: two-hybrid library CCNG1
T10 chain: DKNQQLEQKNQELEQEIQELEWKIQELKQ

[11] = target: T11, 4H3298-bN; assay: two-hybrid library CCNG1
T11 chain: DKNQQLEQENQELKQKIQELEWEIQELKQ

[12] = target: T12, 4H3613-bN; assay: two-hybrid library CCNG1
T12 chain: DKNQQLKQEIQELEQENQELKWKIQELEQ

[13] = target: T13, 4H568-AA; assay: two-hybrid library CCmax; conditions: mean of both orientations
T13 chain: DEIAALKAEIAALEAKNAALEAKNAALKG

[14] = target: T14, 4H967-AA; assay: two-hybrid library CCmax
T14 chain: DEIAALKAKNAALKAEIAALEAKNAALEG

[15] = target: T15, 4H953-AA; assay: two-hybrid library CCmax; conditions: mean of both orientations
T15 chain: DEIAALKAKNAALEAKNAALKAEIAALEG

[16] = target: T16, 4H797-AA; assay: two-hybrid library CCmax; conditions: mean of both orientations
T16 chain: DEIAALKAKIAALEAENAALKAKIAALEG

[17] = target: T17, 4H918-AA; assay: two-hybrid library CCmax; conditions: mean of both orientations
T17 chain: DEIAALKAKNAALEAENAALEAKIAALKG

[18] = target: T18, 4H687-AA; assay: two-hybrid library CCmax; conditions: mean of both orientations
T18 chain: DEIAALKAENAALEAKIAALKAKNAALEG

[19] = target: T19, 4H3855-AA; assay: two-hybrid library CCmax
T19 chain: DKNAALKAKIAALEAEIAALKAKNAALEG

[20] = target: T20, 4H717-AA; assay: two-hybrid library CCmax; conditions: mean of both orientations
T20 chain: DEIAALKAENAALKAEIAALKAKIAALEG

[21] = target: T21, 4H883-AA; assay: two-hybrid library CCmax; conditions: mean of both orientations
T21 chain: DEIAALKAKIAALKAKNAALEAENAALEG

[22] = target: T22, 4H4001-AA; assay: two-hybrid library CCmax; conditions: mean of both orientations
T22 chain: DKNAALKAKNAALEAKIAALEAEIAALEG

interaction score [1]: -0.0622 | interaction score [2]: -0.633 | interaction score [3]: -1.02 | interaction score [4]: -0.72 | interaction score [5]: 0.658 | interaction score [6]: -0.511 | interaction score [7]: -0.279 | interaction score [8]: -0.521 | interaction score [9]: 0.818 | interaction score [10]: -0.773 | interaction score [11]: -0.312 | interaction score [12]: -0.132
B1: 4H3175-bN (peptide)
chain: DKNQQLEQEIQELKQKIQELEWKNQELEQ

interaction score [13]: -1.35 | interaction score [14]: -1.53 | interaction score [15]: -1.89 | interaction score [16]: -1.29 | interaction score [17]: -2.01 | interaction score [18]: -1.5 | interaction score [19]: 1.05 | interaction score [20]: -1.18 | interaction score [21]: -1.77 | interaction score [22]: -0.86
B2: 4H3855-AA (peptide)
chain: DKNAALKAKIAALEAEIAALKAKNAALEG
